Measured values: publication PMC9482650, “Quantitative fragmentomics allow affinity mapping of interactomes” (Nature Communications, 2022)

T1: DFNB31_3, Q9P202
T1 sequence (Q9P202 811-907, limits assumed, looked up): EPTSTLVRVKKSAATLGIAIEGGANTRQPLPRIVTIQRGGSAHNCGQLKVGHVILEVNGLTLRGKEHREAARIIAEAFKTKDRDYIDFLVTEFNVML

T2: MPP6, Q9NZW5
T2 sequence (Q9NZW5 125-219, limits assumed, looked up): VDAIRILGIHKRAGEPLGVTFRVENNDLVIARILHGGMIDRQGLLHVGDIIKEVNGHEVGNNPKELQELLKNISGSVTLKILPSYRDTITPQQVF

T3: PDZD7_3, Q9H5P4
T3 sequence (Q9H5P4 857-944, limits assumed, looked up): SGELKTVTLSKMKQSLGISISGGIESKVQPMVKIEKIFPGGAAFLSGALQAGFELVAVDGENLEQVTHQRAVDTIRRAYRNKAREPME

T4: SHANK1, Q9Y566
T4 sequence (Q9Y566 658-767, limits assumed, looked up): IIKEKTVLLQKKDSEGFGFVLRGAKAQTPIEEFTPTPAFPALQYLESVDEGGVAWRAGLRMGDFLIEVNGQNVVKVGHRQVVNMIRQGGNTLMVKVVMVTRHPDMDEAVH

T5: DFNB31_1, Q9P202
T5 sequence (Q9P202 135-233, limits assumed, looked up): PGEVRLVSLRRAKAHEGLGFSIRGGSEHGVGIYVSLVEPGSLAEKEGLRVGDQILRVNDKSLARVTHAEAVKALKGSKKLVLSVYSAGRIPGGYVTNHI

T6: DLG3_3, Q92796
T6 sequence (Q92796 374-475, limits assumed, looked up): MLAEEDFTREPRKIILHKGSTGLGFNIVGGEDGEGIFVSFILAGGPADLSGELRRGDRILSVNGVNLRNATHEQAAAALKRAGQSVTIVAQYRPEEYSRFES

T7: APBA3_1, O96018
T7 sequence (O96018 389-490, limits assumed, looked up): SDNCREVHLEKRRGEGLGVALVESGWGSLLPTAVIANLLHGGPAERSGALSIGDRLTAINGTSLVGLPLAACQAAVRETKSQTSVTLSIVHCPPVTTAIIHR

T8: LNX2_2, Q8N448
T8 sequence (Q8N448 334-432, limits assumed, looked up): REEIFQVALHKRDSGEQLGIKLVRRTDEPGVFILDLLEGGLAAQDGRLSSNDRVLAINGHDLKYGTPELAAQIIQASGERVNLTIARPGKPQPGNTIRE

T9: MPDZ_12, O75970
T9 sequence (O75970 1857-1958, limits assumed, looked up): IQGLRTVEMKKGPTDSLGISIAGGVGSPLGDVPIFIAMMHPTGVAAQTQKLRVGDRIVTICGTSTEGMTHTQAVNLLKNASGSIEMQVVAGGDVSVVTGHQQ

T10: MPP2, Q14168
T10 sequence (Q14168 180-250, limits assumed, looked up): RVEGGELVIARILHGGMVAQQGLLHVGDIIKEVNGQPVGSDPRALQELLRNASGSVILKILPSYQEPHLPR


Columns and labels:
Assay in all cases: holdup assay
Set-up in all cases: key: below the threshold = too weak to quantify, mostly under pKd 3.1 to 4
Conditions in all cases: plain residues with an end cap or a label only (N-terminal biotin on a linker: ado-ado)
LDB3, O75112 = target: LDB3, O75112
Chain of LDB3, O75112 (O75112 1-94): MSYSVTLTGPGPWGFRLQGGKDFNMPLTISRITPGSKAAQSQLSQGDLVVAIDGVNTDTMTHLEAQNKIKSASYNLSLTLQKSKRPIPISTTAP

GRIP2_4, Q9C0E4 = target: GRIP2_4, Q9C0E4
Chain of GRIP2_4, Q9C0E4 (Q9C0E4 446-548): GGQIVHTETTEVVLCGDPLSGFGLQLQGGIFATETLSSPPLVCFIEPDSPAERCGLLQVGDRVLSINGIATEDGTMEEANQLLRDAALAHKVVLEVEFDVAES

MAGI2_4, Q86UL8 = target: MAGI2_4, Q86UL8
Chain of MAGI2_4, Q86UL8 (Q86UL8 772-865): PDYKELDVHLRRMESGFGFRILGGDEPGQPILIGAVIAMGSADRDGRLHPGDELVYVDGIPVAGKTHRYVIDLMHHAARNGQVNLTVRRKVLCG

Inadl_8, Q8NI35 = target: Inadl_8, Q8NI35
Chain of Inadl_8, Q8NI35 (Q8NI35 1425-1530): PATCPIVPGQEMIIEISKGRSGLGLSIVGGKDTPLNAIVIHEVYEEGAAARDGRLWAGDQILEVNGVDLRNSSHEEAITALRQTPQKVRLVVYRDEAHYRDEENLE

DFNB31_3, Q9P202 = target: T1, DFNB31_3, Q9P202
MPP6, Q9NZW5 = target: T2, MPP6, Q9NZW5
PDZD7_3, Q9H5P4 = target: T3, PDZD7_3, Q9H5P4
SHANK1, Q9Y566 = target: T4, SHANK1, Q9Y566
FRMPD3, Q5JV73 = target: FRMPD3, Q5JV73
Chain of FRMPD3, Q5JV73 (Q5JV73 12-100): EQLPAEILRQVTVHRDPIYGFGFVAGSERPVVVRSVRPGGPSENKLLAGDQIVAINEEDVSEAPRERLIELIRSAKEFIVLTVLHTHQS

PTPN3, P26045 = target: PTPN3, P26045
Chain of PTPN3, P26045 (P26045 505-587): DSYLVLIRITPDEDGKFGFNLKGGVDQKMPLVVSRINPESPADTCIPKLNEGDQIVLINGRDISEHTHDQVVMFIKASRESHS

DFNB31_1, Q9P202 = target: T5, DFNB31_1, Q9P202
DLG4_2, P78352 = target: DLG4_2, P78352
Chain of DLG4_2, P78352 (P78352 155-259): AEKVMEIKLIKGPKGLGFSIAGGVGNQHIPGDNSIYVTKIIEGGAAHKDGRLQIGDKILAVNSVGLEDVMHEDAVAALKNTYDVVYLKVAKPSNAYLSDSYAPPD

CASK, O14936 = target: CASK, O14936
Chain of CASK, O14936 (O14936 487-570): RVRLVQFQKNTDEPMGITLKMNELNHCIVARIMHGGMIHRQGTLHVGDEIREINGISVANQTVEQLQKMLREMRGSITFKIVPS

MAGI3_2, Q5TCQ9 = target: MAGI3_2, Q5TCQ9
Chain of MAGI3_2, Q5TCQ9 (Q5TCQ9 398-503): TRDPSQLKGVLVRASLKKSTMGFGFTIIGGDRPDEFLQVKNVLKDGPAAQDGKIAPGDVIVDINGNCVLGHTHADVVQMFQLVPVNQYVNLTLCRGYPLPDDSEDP

DLG3_3, Q92796 = target: T6, DLG3_3, Q92796
APBA3_1, O96018 = target: T7, APBA3_1, O96018
GRIP2_5, Q9C0E4 = target: GRIP2_5, Q9C0E4
Chain of GRIP2_5, Q9C0E4 (Q9C0E4 544-642): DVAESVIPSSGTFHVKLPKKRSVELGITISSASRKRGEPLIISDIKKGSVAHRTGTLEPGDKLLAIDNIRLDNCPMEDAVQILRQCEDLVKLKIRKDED

Inadl_1, Q8NI35 = target: Inadl_1, Q8NI35
Chain of Inadl_1, Q8NI35 (Q8NI35 113-229): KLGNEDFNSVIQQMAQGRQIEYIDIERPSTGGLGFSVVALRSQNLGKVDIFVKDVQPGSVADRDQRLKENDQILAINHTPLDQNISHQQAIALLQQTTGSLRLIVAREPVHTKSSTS

LNX2_2, Q8N448 = target: T8, LNX2_2, Q8N448
TJP1_3, Q07157 = target: TJP1_3, Q07157
Chain of TJP1_3, Q07157 (Q07157 416-512): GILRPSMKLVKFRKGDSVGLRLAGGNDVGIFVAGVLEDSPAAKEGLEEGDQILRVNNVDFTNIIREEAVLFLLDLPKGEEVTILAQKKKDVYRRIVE

DLG4_1, P78352 = target: DLG4_1, P78352
Chain of DLG4_1, P78352 (P78352 62-152): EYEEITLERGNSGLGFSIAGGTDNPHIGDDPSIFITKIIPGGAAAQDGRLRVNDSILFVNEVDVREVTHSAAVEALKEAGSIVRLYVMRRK

MPDZ_12, O75970 = target: T9, MPDZ_12, O75970
LIMK2, P53671 = target: LIMK2, P53671
Chain of LIMK2, P53671 (P53671 143-248): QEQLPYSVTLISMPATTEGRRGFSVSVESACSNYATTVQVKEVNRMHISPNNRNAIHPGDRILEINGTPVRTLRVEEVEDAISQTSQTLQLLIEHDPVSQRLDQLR

SCRIB_3, Q14160 = target: SCRIB_3, Q14160
Chain of SCRIB_3, Q14160 (Q14160 999-1103): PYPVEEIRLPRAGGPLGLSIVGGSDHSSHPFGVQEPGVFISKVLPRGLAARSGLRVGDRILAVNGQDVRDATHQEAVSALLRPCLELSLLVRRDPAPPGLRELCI

IL16_3, Q14005 = target: IL16_3, Q14005
Chain of IL16_3, Q14005 (Q14005 1107-1207): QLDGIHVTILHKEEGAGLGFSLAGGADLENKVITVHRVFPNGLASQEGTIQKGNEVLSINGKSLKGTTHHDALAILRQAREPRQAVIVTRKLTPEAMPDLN

MPP2, Q14168 = target: T10, MPP2, Q14168
GRIP2_3, Q9C0E4 = target: GRIP2_3, Q9C0E4
Chain of GRIP2_3, Q9C0E4 (Q9C0E4 238-339): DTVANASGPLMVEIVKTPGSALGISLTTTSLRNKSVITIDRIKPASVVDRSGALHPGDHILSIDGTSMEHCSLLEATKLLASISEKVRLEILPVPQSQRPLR

GRIP2_6, Q9C0E4 = target: GRIP2_6, Q9C0E4
Chain of GRIP2_6, Q9C0E4 (Q9C0E4 648-740): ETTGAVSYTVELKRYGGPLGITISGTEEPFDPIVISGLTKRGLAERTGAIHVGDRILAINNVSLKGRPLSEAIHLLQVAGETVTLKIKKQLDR

MAGI2_6, Q86UL8 = target: MAGI2_6, Q86UL8
Chain of MAGI2_6, Q86UL8 (Q86UL8 1141-1229): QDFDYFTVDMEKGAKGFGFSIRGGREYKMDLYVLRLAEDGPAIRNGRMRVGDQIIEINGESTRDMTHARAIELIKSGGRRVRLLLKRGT

Binder	pKd (LDB3, O75112)	pKd (GRIP2_4, Q9C0E4)	pKd (MAGI2_4, Q86UL8)	pKd (Inadl_8, Q8NI35)	pKd (DFNB31_3, Q9P202)	pKd (MPP6, Q9NZW5)	pKd (PDZD7_3, Q9H5P4)	pKd (SHANK1, Q9Y566)	pKd (FRMPD3, Q5JV73)	pKd (PTPN3, P26045)	pKd (DFNB31_1, Q9P202)	pKd (DLG4_2, P78352)	pKd (CASK, O14936)	pKd (MAGI3_2, Q5TCQ9)	pKd (DLG3_3, Q92796)	pKd (APBA3_1, O96018)	pKd (GRIP2_5, Q9C0E4)	pKd (Inadl_1, Q8NI35)	pKd (LNX2_2, Q8N448)	pKd (TJP1_3, Q07157)	further results
DLLGGGSDSI [TNRC6B, Q9UPQ9]	below the threshold	below the threshold	below the threshold	below the threshold	4.01	below the threshold	below the threshold	below the threshold	below the threshold	below the threshold	below the threshold	3.5	below the threshold	below the threshold	below the threshold	below the threshold	below the threshold	below the threshold	below the threshold	below the threshold	pKd (DLG4_1, P78352): below the threshold; pKd (MPDZ_12, O75970): 3.53; pKd (LIMK2, P53671): below the threshold; pKd (SCRIB_3, Q14160): below the threshold; pKd (IL16_3, Q14005): below the threshold; pKd (MPP2, Q14168): below the threshold; pKd (GRIP2_3, Q9C0E4): below the threshold; pKd (GRIP2_6, Q9C0E4): below the threshold; pKd (MAGI2_6, Q86UL8): below the threshold
NSTHNLKDYV [CLDN20, P56880]	below the threshold	below the threshold	below the threshold	3.82	below the threshold	below the threshold	below the threshold	below the threshold	below the threshold	below the threshold	below the threshold	below the threshold	below the threshold	below the threshold	below the threshold	below the threshold	below the threshold	below the threshold	4.12	below the threshold	pKd (DLG4_1, P78352): below the threshold; pKd (MPDZ_12, O75970): below the threshold; pKd (LIMK2, P53671): below the threshold; pKd (SCRIB_3, Q14160): below the threshold; pKd (IL16_3, Q14005): below the threshold; pKd (MPP2, Q14168): below the threshold; pKd (GRIP2_3, Q9C0E4): below the threshold; pKd (GRIP2_6, Q9C0E4): below the threshold; pKd (MAGI2_6, Q86UL8): below the threshold
TKEIPNCTSV [SORCS3, Q9UPU3]	below the threshold	below the threshold	4.16	4.28	4.05	below the threshold	4.82	3.92	below the threshold	4.74	4.06	4.28	below the threshold	4.67	4	below the threshold	below the threshold	below the threshold	4.52	below the threshold	pKd (DLG4_1, P78352): 4.26; pKd (MPDZ_12, O75970): 3.84; pKd (LIMK2, P53671): below the threshold; pKd (SCRIB_3, Q14160): 4.24; pKd (IL16_3, Q14005): below the threshold; pKd (MPP2, Q14168): below the threshold; pKd (GRIP2_3, Q9C0E4): below the threshold; pKd (GRIP2_6, Q9C0E4): below the threshold; pKd (MAGI2_6, Q86UL8): 4.43
QLKSGRDSTV [TMEM178A, Q8NBL3]	below the threshold	below the threshold	3.92	3.7	below the threshold	3.8	4.19	below the threshold	below the threshold	4.4	3.6	4.61	3.54	4.12	3.66	below the threshold	below the threshold	below the threshold	3.49	3.5	pKd (DLG4_1, P78352): 4.34; pKd (MPDZ_12, O75970): below the threshold; pKd (LIMK2, P53671): below the threshold; pKd (SCRIB_3, Q14160): 3.48; pKd (IL16_3, Q14005): below the threshold; pKd (MPP2, Q14168): below the threshold; pKd (GRIP2_3, Q9C0E4): 3.51; pKd (GRIP2_6, Q9C0E4): 3.49; pKd (MAGI2_6, Q86UL8): 3.85
